# Test results reported in patent publication US20070202045A1 (published 2007).
# Bridges are numbered along the chain shown (N, C = ends).
# T1: rabbit albumin (rabbit, UniProt P49065 25-608)
# T1 chain: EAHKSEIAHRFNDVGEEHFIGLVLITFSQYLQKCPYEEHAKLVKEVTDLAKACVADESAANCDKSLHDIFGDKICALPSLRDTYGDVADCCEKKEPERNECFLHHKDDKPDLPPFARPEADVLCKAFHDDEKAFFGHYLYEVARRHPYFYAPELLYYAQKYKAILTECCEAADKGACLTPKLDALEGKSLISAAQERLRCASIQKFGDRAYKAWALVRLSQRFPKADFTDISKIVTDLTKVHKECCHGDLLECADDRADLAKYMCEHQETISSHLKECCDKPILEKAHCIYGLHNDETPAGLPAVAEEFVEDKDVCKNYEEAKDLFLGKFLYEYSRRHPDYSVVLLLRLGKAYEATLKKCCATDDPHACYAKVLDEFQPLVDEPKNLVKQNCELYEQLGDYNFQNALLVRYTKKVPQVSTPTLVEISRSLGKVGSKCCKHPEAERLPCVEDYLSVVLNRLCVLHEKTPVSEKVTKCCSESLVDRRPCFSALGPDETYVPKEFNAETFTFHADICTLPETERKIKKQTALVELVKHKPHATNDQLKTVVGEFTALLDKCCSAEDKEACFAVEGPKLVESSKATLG
# Biological target: T1, rabbit albumin
# Experiment: competition ELISA (SA08b binding to rabbit albumin)
binder,measurement,value
Ac-QGLIGDICLPRWGCLWGDSVK-NH2 (disulfide 8-14 (inferred)) [SA08],IC50,33 nM
